Literature values, collected in US20110300070A1, “BIOMOLECULE COMPLEXES AS CONTRAST AGENTS IN POSITRON EMISSION TOMOGRAPHY (PET) BASED METHODS FOR THE ASSESSMENT OF ORGAN FUNCTION” (priority 2008, published 2011).

B1: cystatin C: cysteine protease inhibitor, about 120 amino acids, about 13 kD (protein, UniProt P01034 27-146, looked up)
Cystatin-C: SSPGKPPRLVGGPMDASVEEEGVRRALDFAVGEYNKASNDMYHSRALQVVRARKQIVAGVNYFLDVELGRTTCTKTQPNLDNCPFHDQPHLKRKAFCSFQIYAVPWQGTMTLSKSTCQDA

System: proximal tubular cells
Details: in vivo

Molecule	time window where the filtered amount of the tracer is still quantitatively retained in the proximal tubular cells	optimal clearance period
cytochrome C: heme protein, about 100 amino acids, about 12 kD	about 5 minutes	
B1	about 5 minutes	less than 5 minutes
